This passage reports Kd and koff results from article PMC9802395 (2022).

Where two headings read alike, the source gives them in different places. Some results are limits rather than exact numbers.

B1: biotinylated EIIIB (protein fragment of fibronectin splice variant EIIIB) (domain or fragment)
chain: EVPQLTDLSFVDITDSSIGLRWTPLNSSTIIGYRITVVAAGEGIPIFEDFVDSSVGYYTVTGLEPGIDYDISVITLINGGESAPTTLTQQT
modifications: biotin (ChromaLink NHS-biotin reagent)

Some targets named below: NJB2; LMJ1.3J; LMJ2.6A; LMJ2.5G; LMJ2.5C; LMJ1.2G; LMJ2.4C; LMJ2.5H; LMJ2.5J.
Holding throughout (experiment): BLI
Experiment [1] has as its target B1.
Experiment [2] deals with B1. This is another data set of the same source.
Experiment [3] has as its target B1. This is another data set of the same source.
The target of experiment [4] is B1. The source holds these as a separate data set.

Chain of NJB2 (P02751 1266-1356): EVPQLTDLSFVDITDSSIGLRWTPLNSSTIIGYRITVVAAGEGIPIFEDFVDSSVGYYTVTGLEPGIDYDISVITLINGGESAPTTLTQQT
Chain of LMJ2.5C (P02751 1266-1356): as above
Chain of LMJ1.3J (P02751 1266-1356): as above
Chain of LMJ2.5H (P02751 1266-1356): as above
Chain of LMJ2.6A (P02751 1266-1356): as above
Chain of LMJ1.2G (P02751 1266-1356): as above
Chain of LMJ2.5J (P02751 1266-1356): as above
Chain of LMJ2.5G (P02751 1266-1356): as above
Chain of LMJ2.4C (P02751 1266-1356): as above

With B1, the dissociation constant (Kd) with NJB2 amounted to 1.82 nM; with LMJ1.3J, 0.402 nM; with LMJ2.6A, 0.344 nM; with LMJ2.5G, 0.166 nM; in the experiment with LMJ2.5C, 0.0785 nM; with LMJ1.2G it was 0.973 nM. Besides, the values for the Kd in the experiment with LMJ2.4C, with LMJ2.5H and with LMJ2.5J were 0.0626 nM, 0.227 nM and 0.0622 nM, respectively. Besides, the koff with NJB2 turned out to be 0.00104 s⁻¹; with LMJ1.3J, 0.000305 s⁻¹; with LMJ2.6A it was 7.47e-05 s⁻¹; with LMJ2.5G, 9.13e-05 s⁻¹; with LMJ2.5C, 3.52e-05 s⁻¹; with LMJ1.2G, 0.000475 s⁻¹. The results for the koff in the experiment with LMJ2.4C, in the experiment with LMJ2.5H and in the experiment with LMJ2.5J were 4.8e-05 s⁻¹, 0.000136 s⁻¹ and 4.45e-05 s⁻¹, respectively.

B2: NJB2-IL2 (NJB2 nanobody fused to murine IL-2) (VHH)
VHH: QVQLVETGGGLVQAGGSLRLSCAASGSTFSHNAGGWYRQAPEKQRELVAGISSDGNINYADSVKDRFTISRDNASNTMYLQMNNLKPEDTAVYVCNIRGSYGNTYYSRWGQGTQVTVSS
As for B2, the figures for the Kd in experiment [1] and in experiment [2] were 1.1 nM and 0.996 nM, respectively. For the same molecule, the off-rate (koff) in experiment [3] was found to be 0.000289 s⁻¹.

B3: LMJ2.5I nanobody, biotin-tagged (VHH)
VHH: RVQLVETGGGLVQAGGSLRLSCAVSGSTFSHSAGGWYRQAPEKQRELVAGIRSDGNINYADSVKDRFTISRDNASNTMYLQMNNLKPEDTAVYVCNIRGSYGNTYYSRWGQGAQVTVSS
modifications: biotin at the C-terminus via sortase-mediated tagging (nucleophile GGGK-Biotin)
Consider B3, for which the koff in experiment [4] is 2.49e-05 s⁻¹.

B4: NJB2-IL2-mt (NJB2 fused to murine IL-2 bearing point mutations that abrogate cytokine activity) (VHH)
VHH: QVQLVETGGGLVQAGGSLRLSCAASGSTFSHNAGGWYRQAPEKQRELVAGISSDGNINYADSVKDRFTISRDNASNTMYLQMNNLKPEDTAVYVCNIRGSYGNTYYSRWGQGTQVTVSS
As for B4, binding in [1] was characterised by a dissociation constant (Kd) of 1.6 nM. That is a single-digit nanomolar value.

B5: LMJ1.2C nanobody, biotin-tagged (VHH)
VHH: QVQLVETGGGLVQAGGSLRLSCAASGSTFSHSAGGWYRQAPEKQRELVAGIRSDGNINYADSVKDRFTISRDNASNTMYLQMNNLKPEDTAVYVCNIRGSYGNTYYSRWGQGTQVTVSS
modifications: biotin at the C-terminus via sortase-mediated tagging (nucleophile GGGK-Biotin)
B5 displayed an off-rate (koff) in experiment [4] of 0.00015 s⁻¹.

B6: LMJ2.5I-IL2 (LMJ2.5I nanobody fused to murine IL-2) (VHH)
VHH: RVQLVETGGGLVQAGGSLRLSCAVSGSTFSHSAGGWYRQAPEKQRELVAGIRSDGNINYADSVKDRFTISRDNASNTMYLQMNNLKPEDTAVYVCNIRGSYGNTYYSRWGQGAQVTVSS
For the molecule B6, in experiment [2], the Kd was below 0.001 nM. This molecule also registered a koff in experiment [3] below 1e-07 s⁻¹.

B7: LMJ1.2C-IL2 (LMJ1.2C nanobody fused to murine IL-2) (VHH)
VHH: QVQLVETGGGLVQAGGSLRLSCAASGSTFSHSAGGWYRQAPEKQRELVAGIRSDGNINYADSVKDRFTISRDNASNTMYLQMNNLKPEDTAVYVCNIRGSYGNTYYSRWGQGTQVTVSS
Turning to B7, binding in experiment [2] was put at a Kd of 0.0144 nM. Also, the koff in experiment [3] turned out to be 5.06e-06 s⁻¹.

One may read the Kd as the concentration at which binding is half-saturated. In general, koff refers to a measure of how fast the partners let go of each other. Low readings indicate a long-lived complex, high ones a short-lived complex.
